Measurements as given in paper PMC4658161, “Mutually Exclusive Roles of SHARPIN in Integrin Inactivation and NF-κB Signaling” (PLoS ONE, 2015).

B1: GST-SHARPIN^WT [not stated] / recombinant RNF31 [not stated] (parent complex)
chain 1: MAPPAGGAAAAASDLGSAAVLLAVHAAVRPLGAGPDAEAQLRRLQLSADPERPGRFRLELLGAGPGAVNLEWPLESVSYTIRGPTQHELQPPPGGPGTLSLHFLNPQEAQRWAVLVRGATVEGQNGSKSNSPPALGPEACPVSLPSPPEASTLKGPPPEADLPRSPGNLTEREELAGSLARAIAGGDEKGAAQVAAVLAQHRVALSVQLQEACFPPGPIRLQVTLEDAASAASAASSAHVALQVHPHCTVAALQEQVFSELGFPPAVQRWVIGRCLCVPERSLASYGVRQDGDPAFLYLLSAPREAPATGPSPQHPQKMDGELGRLFPPSLGLPPGPQPAASSLPSPLQPSWSCPSCTFINAPDRPGCEMCSTQRPCTWDPLAAAST
chain 2: MPGEEEERAFLVAREELASALRRDSGQAFSLEQLRPLLASSLPLAARYLQLDAARLVRCNAHGEPRNYLNTLSTALNILEKYGRNLLSPQRPRYWRGVKFNNPVFRSTVDAVQGGRDVLRLYGYTEEQPDGLSFPEGQEEPDEHQVATVTLEVLLLRTELSLLLQNTHPRQQALEQLLEDKVEDDMLQLSEFDPLLREIAPGPLTTPSVPGSTPGPCFLCGSAPGTLHCPSCKQALCPACDHLFHGHPSRAHHLRQTLPGVLQGTHLSPSLPASAQPRPQSTSLLALGDSSLSSPNPASAHLPWHCAACAMLNEPWAVLCVACDRPRGCKGLGLGTEGPQGTGGLEPDLARGRWACQSCTFENEAAAVLCSICERPRLAQPPSLVVDSRDAGICLQPLQQGDALLASAQSQVWYCIHCTFCNSSPGWVCVMCNRTSSPIPAQHAPRPYASSLEKGPPKPGPPRRLSAPLPSSCGDPEKQRQDKMREEGLQLVSMIREGEAAGACPEEIFSALQYSGTEVPLQWLRSELPYVLEMVAELAGQQDPGLGAFSCQEARRAWLDRHGNLDEAVEECVRTRRRKVQELQSLGFGPEEGSLQALFQHGGDVSRALTELQRQRLEPFRQRLWDSGPEPTPSWDGPDKQSLVRRLLAVYALPSWGRAELALSLLQETPRNYELGDVVEAVRHSQDRAFLRRLLAQECAVCGWALPHNRMQALTSCECTICPDCFRQHFTIALKEKHITDMVCPACGRPDLTDDTQLLSYFSTLDIQLRESLEPDAYALFHKKLTEGVLMRDPKFLWCAQCSFGFIYEREQLEATCPQCHQTFCVRCKRQWEEQHRGRSCEDFQNWKRMNDPEYQAQGLAMYLQENGIDCPKCKFSYALARGGCMHFHCTQCRHQFCSGCYNAFYAKNKCPEPNCRVKKSLHGHHPRDCLFYLRDWTALRLQKLLQDNNVMFNTEPPAGARAVPGGGCRVIEQKEVPNGLRDEACGKETPAGYAGLCQAHYKEYLVSLINAHSLDPATLYEVEELETATERYLHVRPQPLAGEDPPAYQARLLQKLTEEVPLGQSIPRRRK

Variants of: B1
Assay: ELISA-based binding assay; n = 3; parent: 1; read off a plot

| Variant | response |
| --- | --- |
| chain 1 V267A | ~0.69 Abs 450nm |
| chain 1 L276A | ~0.49 Abs 450nm |
| chain 1 I272A | ~0.45 Abs 450nm |
| chain 1 L261A, chain 1 F263A | ~0.7 Abs 450nm |
